Target: FLAG (F)-tagged hsp90α (wild type), P07900

Protein	in vitro acetylation of hsp90α, Western analysis with anti-AcK antibody
PCAF (protein) MSEAGGAGPGGCGAGAGAGAGPGALPPQPAALPPAPPQGSPCAAAAGGSGACGPATAVAAAGTAEGPGGGGSARIAVKKAQLRSAPRAKKLEKLGVYSACKAEESCKCNGWKNPNPSPTPPRADLQQIIVSLTESCRSCSHALAAHVSHLENVSEEEMNRLLGIVLDVEYLFTCVHKEEDADTKQVYFYLFKLLRKSILQRGKPVVEGSLEKKPPFEKPSIEQGVNNFVQYKFSHLPAKERQTIVELAKMFLNRINYWHLEAPSQRRLRSPNDDISGYKENYTRWLCYCNVPQFCDSLPRYETTQVFGRTLLRSVFTVMRRQLLEQARQEKDKLPLEKRTLILTHFPKFLSMLEEEVYSQNSPIWDQDFLSASSRTSQLGIQTVINPPPVAGTISYNSTSSSLEQPNAGSSSPACKASSGLEANPGEKRKMTDSHVLEEAKKPRVMGDIPMELINEVMSTITDPAAMLGPETNFLSAHSARDEAARLEERRGVIEFHVVGNSLNQKPNKKILMWLVGLQNVFSHQLPRMPKEYITRLVFDPKHKTLALIKDGRVIGGICFRMFPSQGFTEIVFCAVTSNEQVKGYGTHLMNHLKEYHIKHDILNFLTYADEYAIGYFKKQGFSKEIKIPKTKYVGYIKDYEGATLMGCELNPRIPYTEFSVIIKKQKEIIKKLIERKQAQIRKVYPGLSCFKDGVRQIPIESIPGIRETGWKPSGKEKSKEPRDPDQLYSTLKSILQQVKSHQSAWPFMEPVKRTEAPGYYEVIRFPMDLKTMSERLKNRYYVSKKLFMADLQRVFTNCKEYNPPESEYYKCANILEKFFFSKIKEAGLIDK	This was not seen with PCAF
p300 protein (upstate) (protein) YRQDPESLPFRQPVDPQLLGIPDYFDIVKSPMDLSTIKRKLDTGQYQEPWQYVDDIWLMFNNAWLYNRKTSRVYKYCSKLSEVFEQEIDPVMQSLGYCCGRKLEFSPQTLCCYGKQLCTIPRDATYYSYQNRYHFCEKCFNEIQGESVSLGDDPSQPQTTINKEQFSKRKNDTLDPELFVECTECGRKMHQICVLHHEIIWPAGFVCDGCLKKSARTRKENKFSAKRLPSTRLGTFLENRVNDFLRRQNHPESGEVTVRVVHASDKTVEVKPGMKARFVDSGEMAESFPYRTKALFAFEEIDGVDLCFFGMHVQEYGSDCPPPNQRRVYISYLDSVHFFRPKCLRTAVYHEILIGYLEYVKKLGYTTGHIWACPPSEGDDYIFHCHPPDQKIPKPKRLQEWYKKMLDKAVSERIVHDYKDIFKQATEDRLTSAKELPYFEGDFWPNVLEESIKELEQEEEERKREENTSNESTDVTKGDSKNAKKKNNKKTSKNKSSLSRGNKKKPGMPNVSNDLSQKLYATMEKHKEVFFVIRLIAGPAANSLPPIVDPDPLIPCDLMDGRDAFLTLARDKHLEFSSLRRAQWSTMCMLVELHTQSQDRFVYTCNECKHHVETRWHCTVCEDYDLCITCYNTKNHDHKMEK	Co-incubation with p300 was discovered to dose-dependently stimulate the acetylation of hsp90α
